The record followed here is article PMC4695161, “Multifaceted interactions and regulation between antizyme and its interacting proteins cyclin D1, ornithine decarboxylase and antizyme inhibitor” (Oncotarget, 2015).

The chains are these.
B2: human antizyme (AZ), wild type (natural protein)
chain: not shown
notes: antizyme (AZ), human; Natural AZ needs a +1 frameshift for translation; also called AZWT; full-length AZ; source: E. coli JM109 (pQE30), purified (Ni-NTA)

What all share (conditions): both partners purified
Assay [1] deals with T1, pre-formed AZ-CCND1 complex (human, UniProt P54368 1-228; P24385 1-295).
T1 construct: antizyme (AZ), human, as m1; cyclin D1 (CCND1), human, as m2; Molar ratio AZ/CCND1 fixed at 1; also called CCND1-AZ complex; source: AZ pre-incubated with CCND1 for 1 hour (purified recombinant proteins)
T1 sequence (P54368 whole entry, chain 1 of 2): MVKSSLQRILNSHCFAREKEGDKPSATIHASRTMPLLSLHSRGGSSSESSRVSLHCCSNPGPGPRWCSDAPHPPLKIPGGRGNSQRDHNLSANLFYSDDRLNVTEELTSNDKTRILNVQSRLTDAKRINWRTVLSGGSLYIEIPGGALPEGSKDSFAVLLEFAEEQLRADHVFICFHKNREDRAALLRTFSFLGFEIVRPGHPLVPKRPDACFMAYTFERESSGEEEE
T1 sequence (P24385 whole entry, chain 2 of 2): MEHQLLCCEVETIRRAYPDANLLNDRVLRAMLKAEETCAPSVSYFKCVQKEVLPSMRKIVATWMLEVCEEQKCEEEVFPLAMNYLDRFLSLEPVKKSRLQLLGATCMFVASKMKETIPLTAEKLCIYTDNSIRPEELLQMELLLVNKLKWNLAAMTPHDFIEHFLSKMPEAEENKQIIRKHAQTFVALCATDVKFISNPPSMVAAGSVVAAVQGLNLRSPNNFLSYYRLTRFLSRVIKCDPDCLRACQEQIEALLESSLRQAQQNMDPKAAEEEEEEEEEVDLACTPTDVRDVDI
Briefly: AUC; sedimentation velocity; AZ pre-incubated 1 hour with ODC (or CCND1) at molar ratio 1, then the third protein (CCND1 or ODC) at varied concentration; 30 mM Tris-HCl pH 7.4, 50 mM NaCl, 20°C.

The next assay has as its target T2, human cyclin D1 (CCND1) (human, UniProt P24385 1-295).
T2 construct: cyclin D1 (CCND1), human; source: E. coli JM109 (pQE30), purified (Ni-NTA)
Description: AUC; sedimentation velocity; AZ or AZ peptide at a fixed concentration, three concentrations of CCND1; 30 mM Tris-HCl pH 7.4, 50 mM NaCl; global fit (SEDPHAT) to A+B↔AB hetero-association.

In assay [2] the target is B2. Briefly: AUC; sedimentation velocity, size distribution of mixtures at molar ratio AZ/CCND1 of 1; 30 mM Tris-HCl pH 7.4, 50 mM NaCl, 20°C; no constant fitted.

T2 sequence (P24385 whole entry): as the sequence (P24385 whole entry, chain 2 of 2) above

B1: human ornithine decarboxylase (ODC) (enzyme, UniProt P11926 1-461, looked up)
chain: MNNFGNEEFDCHFLDEGFTAKDILDQKINEVSSSDDKDAFYVADLGDILKKHLRWLKALPRVTPFYAVKCNDSKAIVKTLAATGTGFDCASKTEIQLVQSLGVPPERIIYANPCKQVSQIKYAANNGVQMMTFDSEVELMKVARAHPKAKLVLRIATDDSKAVCRLSVKFGATLRTSRLLLERAKELNIDVVGVSFHVGSGCTDPETFVQAISDARCVFDMGAEVGFSMYLLDIGGGFPGSEDVKLKFEEITGVINPALDKYFPSDSGVRIIAEPGRYYVASAFTLAVNIIAKKIVLKEQTGSDDEDESSEQTFMYYVNDGVYGSFNCILYDHAHVKPLLQKRPKPDEKYYSSSIWGPTCDGLDRIVERCDLPEMHVGDWMLFENMGAYTVAAASTFNGFQRPTIYYVMSGPAWQLMQQFQNPDFPPEVEEQDASTLPVSCAWESGMKRHRAACASASINV
notes: ornithine decarboxylase (ODC), human; source: purified recombinant; expression not described
With B1, the Kd in assay [1] is 1260 ± 20 nM. As to B2, the Kd in the assay with human cyclin D1 (CCND1) came out at 810 ± 20 nM.

B3: N-terminal CCND1 peptide CCND1(21-154) (domain or fragment, human, UniProt P24385 21-154, looked up)
chain: NLLNDRVLRAMLKAEETCAPSVSYFKCVQKEVLPSMRKIVATWMLEVCEEQKCEEEVFPLAMNYLDRFLSLEPVKKSRLQLLGATCMFVASKMKETIPLTAEKLCIYTDNSIRPEELLQMELLLVNKLKWNLAA
notes: source: truncated by deletion mutagenesis of the human CCND1 plasmid
For B3, in assay [2], the binding result is on record as “binds”.

B4: N-terminal AZ peptide AZ(34-124) (domain or fragment)
chain: not shown
notes: also called AZ N-terminal peptide; source: truncated by deletion mutagenesis of the human AZ plasmid
Turning to B4, the Kd with human cyclin D1 (CCND1) worked out at 870 ± 10 nM.
